Laboratory results from paper doi:10.1101/847772.

Molecular target: biotin-labelled M3C phenomycin (Streptomyces fervens MA 564-Cl)
Assay: BLI

Work on human 80S ribosome (complex) yielded a Kd of 0.023 nM.
